Experiment: PK study in serum of cynomolgus monkeys
Type: in vivo
Settings: 5 mg/kg i.v. bolus; for AUC 0-t: t = 28 days
Procedure: 2 cynomolgus monkeys per group (one male, one female) were dosed at 5 mg/kg with an i.v. bolus of protein at time 0. Blood samples were taken for PK analysis at the following timepoints: pre-dose, 0.25 hr, 0.5 hr, 1 hr, 4 hr, 8 hr, 24 hr, day 3, day 5, day 7, day 10, day 12, day 14, day 21, day 28.
At least 0.8 mL blood samples were collected from a cephalic or saphenous vein at sampling time points from the two animals. For samples collected within the first hour of dosing, a ±1 minute deviation in sample collection time was acceptable. For the remaining time points, samples that were taken within 5% of the scheduled time are acceptable. All blood samples were collected into commercially available tubes containing coagulant. The tubes containing blood samples remained at room temperature for 30 minutes before centrifugation. The samples were centrifuged at 4° C. for 10 minutes at 1500×g within one hour of collection. About 400 μL serum per time point was collected post centrifugation. The samples were then quickly frozen over dry ice and kept at −60° C. or lower until transferred in dry ice for analysis. All samples were uniquely identified to indicate origin and collection time.
The concentrations of analyte in serum were determined using a bioanalytical ELISA method. 96-well ELISA plates were coated overnight at 4° C. with 1 μg/ml Goat anti-Human IgG in Carbonate-bicarbonate buffer. After wash and blocking, serial diluted plasma samples were added and then biotin labeled Goat anti-human IgG (0.0625 ug/mL) was used as detection antibody. HRP-Streptavidin and TMB substrate were used for colour development. The reaction was stopped after approximately 5-10 minutes through the addition of 2M HCl. The absorbance was read at 450 nm and 540 nm using a microplate spectrophotometer (SpectraMax® M5e). The OD value of the samples were substituted into the standard curve to obtain the plasma concentration. The detection limit of this ELISA method LLOQ for Fc+Fc is 1 ng/mL.
The serum concentration of ARQ-234 in monkeys was subjected to a non-compartmental pharmacokinetic analysis by using the Phoenix WinNonlin software (version 8.1, Pharsight, Mountain View, CA). The linear/log trapezoidal rule was applied in obtaining the PK parameters.

ARQ-234: mutated human CD200-Fc fusion protein: CD200 K130Y, I131Y directly fused to IgG4 Fc S228P, M428L, N434S
average half-life in the two animals tested (serum): 15.44 days
Cl_obs (animal #3001 (M)): 7.45 mL/day/kg
MRTINF_obs (animal #3001 (M)): 17.3 days
Vss_obs (animal #3001 (M)): 0.129 L/kg
Cmax (animal #3001 (M), serum): 127 µg/mL
t1/2 (animal #3001 (M), serum): 12.4 days
AUC 0-t (animal #3001 (M)): 12927 µg·h/mL
Cl_obs (animal #3002 (F)): 6.56 mL/day/kg
MRTINF_obs (animal #3002 (F)): 25.3 days
Vss_obs (animal #3002 (F)): 0.166 L/kg
Cmax (animal #3002 (F), serum): 124 µg/mL
t1/2 (h) (animal #3002 (F), serum, footnote: half-life not accurate (AUC_%Extrap_obs >20% or Rsq_adjusted <0.9)): 443^ h
AUC 0-t (animal #3002 (F)): 12259 µg·h/mL

Reference: patent publication US20260116946A1, “NOVEL CD200 FUSION PROTEINS” (DUCENTIS BIOTHERAPEUTICS LIMITED, priority 2022, published 2026)
